# Data as given in patent publication US20260159566A1 (US Dept. of Health and Human Services, published 2026).
# Where two headings read alike, the source gives them in different places.
# T1: B-cell Maturation Antigen (BCMA) (human, UniProt Q02223 1-184)
# T1 sequence: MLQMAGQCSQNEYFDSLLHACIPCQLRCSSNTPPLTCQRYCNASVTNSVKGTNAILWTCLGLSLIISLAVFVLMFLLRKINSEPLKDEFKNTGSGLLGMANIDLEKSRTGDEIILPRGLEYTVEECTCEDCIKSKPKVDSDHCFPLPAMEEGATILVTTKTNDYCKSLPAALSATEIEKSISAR
# T2: BCMA-Fc protein labeled with phycoerythrin (Homo sapiens (Human), UniProt Q02223 1-54, labeled with phycoerythrin)
# T2 construct: Staining reagent; also called BCMA-Fc-PE reagent; BCMA-Fc protein reagent; not shown: Fc part
# T2 sequence: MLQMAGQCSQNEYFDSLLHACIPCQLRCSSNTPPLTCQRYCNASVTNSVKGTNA
# B1: FHVH33-CD828Z (other)
# chain: EVQLLESGGGLVQPGGSLRLSCAASGFTFSSYAMSWVRQAPGKGLEWVSSISGSGDYIYYADSVKGRFTISRDISKNTLYLQMNSLRAEDTAVYYCAKEGTGANSSLADYRGQGTLVTVSSFVPVFLPAKPTTTPAPRPPTPAPTIASQPLSLRPEACRPAAGGAVHTRGLDFACDIYIWAPLAGTCGVLLLSLVITLYCNHRNRSKRSRLLHSDYMNMTPRRPGPTRKHYQPYAPPRDFAAYRSRVKFSRSADAPAYQQGQNQLYNELNLGRREEYDVLDKRRGRDPEMGGKPRRKNPQEGLYNELQKDKMAEAYSEIGMKGERRRGKGHDGLYQGLSTATKDTYDALHMQALPPR
# notes: Chimeric antigen receptor on transduced primary human T cells; also called FHVH33 CAR
# How the values were obtained:
# [1] = molecular target: T1, B-cell Maturation Antigen (BCMA); assay: cell-based or functional assay
# [2] = molecular target: T1, B-cell Maturation Antigen (BCMA); assay: cell-based or functional assay; remark: listed apart in the source
# [3] = molecular target: T2, BCMA-Fc protein labeled with …; assay: flow cytometry, BCMA-Fc-PE staining of CAR-transduced T cells
# Protocol: (§1) With reference to Table 2, cultured T cells were transduced with the indicated CARs and cultured overnight with the indicated target cells (top row). After the overnight incubation, a standard ELISA assay was performed on the culture supernatant. BCMA-K562 is BCMA⁺. All other targets are BCMA-negative. The percentage of T cells expressing the indicated CAR was determined by staining with a BCMA-Fc-PE reagent followed by flow cytometry. The % CAR⁺ equals the percentage of CD3⁺ cells transduced with each CAR that stained with the BCMA-Fc-PE reagent minus the percentage of untransduced CD3⁺ lymphocytes that stained with the BCMA-Fc-PE reagent. Except for the % CAR⁺ column, all numbers are pg/mL of interferon-gamma.
# [4] = molecular target: T2, BCMA-Fc protein labeled with …; assay: as above; remark: listed apart in the source
# Protocol: as §1
binder,measurement,setting,value
B1,"Interferon-gamma ELISA, T cells cultured overnight with BCMA-K562 cells",[1],31300 pg/mL
same,"Interferon-gamma ELISA, T cells cultured overnight with RPMI-8226 cells",[1],4060 pg/mL
same,"Tumor-necrosis factor-alpha ELISA, T cells cultured overnight with BCMA-K562 cells",[2],2160 pg/mL
same,"Tumor-necrosis factor-alpha ELISA, T cells cultured overnight with RPMI-8226 cells",[2],210 pg/mL
same,% CAR+ (percentage of CD3+ cells stained with BCMA-Fc-PE minus untransduced),[3],60.5%
same,% CAR+ (percentage of CD3+ cells stained with BCMA-Fc-PE minus untransduced),[4],60.5%
